Assay results reported in paper PMC10397247.
Where two headings read alike, the source gives them in different places.

How the values were obtained:
[1] = molecular target: T1, 4H3094-AA; test: two-hybrid library CCmax;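 also: natural log of median RNA to DNA barcode read ratio; higher means stronger binding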
T1 chain: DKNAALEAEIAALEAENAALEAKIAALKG

[2] = molecular target: T2, 4H324-AA; test: two-hybrid library CCmax; details: mean of both orientations;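 also: natural log of median RNA to DNA barcode read ratio; higher means stronger binding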
T2 chain: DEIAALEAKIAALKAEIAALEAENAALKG

[3] = molecular target: T3, 4H341-AA; test: two-hybrid library CCmax;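 also: natural log of median RNA to DNA barcode read ratio; higher means stronger binding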
T3 chain: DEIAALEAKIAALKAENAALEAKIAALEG

[4] = molecular target: T4, 4H3449-AA; test: two-hybrid library CCmax; details: mean of both orientations;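 also: natural log of median RNA to DNA barcode read ratio; higher means stronger binding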
T4 chain: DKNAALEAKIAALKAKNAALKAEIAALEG

[5] = molecular target: T5, 4H3619-AA; test: two-hybrid library CCmax; details: mean of both orientations;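 also: natural log of median RNA to DNA barcode read ratio; higher means stronger binding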
T5 chain: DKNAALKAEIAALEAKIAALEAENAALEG

[6] = molecular target: T6, 4H3629-AA; test: two-hybrid library CCmax; details: mean of both orientations;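 also: natural log of median RNA to DNA barcode read ratio; higher means stronger binding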
T6 chain: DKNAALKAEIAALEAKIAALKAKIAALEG

[7] = molecular target: T7, 4H3777-AA; test: two-hybrid library CCmax; details: mean of both orientations
T7 chain: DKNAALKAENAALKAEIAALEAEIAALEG

[8] = molecular target: T8, 4H380-AA; test: two-hybrid library CCmax; details: mean of both orientations
T8 chain: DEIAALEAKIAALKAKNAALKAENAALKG

[9] = molecular target: T9, 4H3915-AA; test: two-hybrid library CCmax
T9 chain: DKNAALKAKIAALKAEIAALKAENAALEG

[10] = molecular target: T10, 4H3974-AA; test: two-hybrid library CCmax; details: mean of both orientations
T10 chain: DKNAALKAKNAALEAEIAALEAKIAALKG

[11] = molecular target: T11, 4H432-AA; test: two-hybrid library CCmax; details: mean of both orientations
T11 chain: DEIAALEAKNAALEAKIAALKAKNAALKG

[12] = molecular target: T12, 4H446-AA; test: two-hybrid library CCmax; details: mean of both orientations
T12 chain: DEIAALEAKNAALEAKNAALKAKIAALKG

[13] = molecular target: T13, 4H63-AA; test: two-hybrid library CCmax; details: mean of both orientations
T13 chain: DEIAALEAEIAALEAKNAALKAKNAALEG

[14] = molecular target: T14, 4H492-bH; test: two-hybrid library CCNG1
T14 chain: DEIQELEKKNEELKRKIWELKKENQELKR

[15] = molecular target: T15, 4H741-bH; test: two-hybrid library CCNG1
T15 chain: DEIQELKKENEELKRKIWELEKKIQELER

[16] = molecular target: T16, 4H3414-AA; test: two-hybrid library CCmax
T16 chain: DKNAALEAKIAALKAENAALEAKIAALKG

[17] = molecular target: T17, 4H3595-AA; test: two-hybrid library CCmax; details: mean of both orientations
T17 chain: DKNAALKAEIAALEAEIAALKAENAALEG

[18] = molecular target: T18, 4H3782-AA; test: two-hybrid library CCmax; details: mean of both orientations
T18 chain: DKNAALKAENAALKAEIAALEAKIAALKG

[19] = molecular target: T19, 4H3939-AA; test: two-hybrid library CCmax; details: mean of both orientations
T19 chain: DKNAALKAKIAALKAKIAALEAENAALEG

[20] = molecular target: T20, 4H3969-AA; test: two-hybrid library CCmax
T20 chain: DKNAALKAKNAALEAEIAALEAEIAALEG

[21] = molecular target: T21, 4H464-AA; test: two-hybrid library CCmax; details: mean of both orientations
T21 chain: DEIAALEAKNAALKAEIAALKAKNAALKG

[22] = molecular target: T22, 4H483-AA; test: two-hybrid library CCmax; details: mean of both orientations
T22 chain: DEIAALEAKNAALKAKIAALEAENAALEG

[23] = molecular target: T23, 4H454-bN; test: two-hybrid library CCNG1
T23 chain: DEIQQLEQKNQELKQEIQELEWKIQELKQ

[24] = molecular target: T24, 4H568-bN; test: two-hybrid library CCNG1
T24 chain: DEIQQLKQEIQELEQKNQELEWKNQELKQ

[25] = molecular target: T25, 4H607-bN; test: two-hybrid library CCNG1
T25 chain: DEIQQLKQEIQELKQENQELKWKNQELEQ

[26] = molecular target: T26, 4H687-bN; test: two-hybrid library CCNG1
T26 chain: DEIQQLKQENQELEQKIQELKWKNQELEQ

[27] = molecular target: T27, 4H717-bN; test: two-hybrid library CCNG1
T27 chain: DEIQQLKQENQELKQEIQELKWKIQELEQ

[28] = molecular target: T28, 4H72-bN; test: two-hybrid library CCNG1
T28 chain: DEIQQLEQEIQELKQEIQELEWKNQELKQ

[29] = molecular target: T29, 4H754-bN; test: two-hybrid library CCNG1
T29 chain: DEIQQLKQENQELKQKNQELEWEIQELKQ

[30] = molecular target: T30, 4H797-bN; test: two-hybrid library CCNG1
T30 chain: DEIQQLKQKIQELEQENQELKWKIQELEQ

[31] = molecular target: T31, 4H883-bN; test: two-hybrid library CCNG1
T31 chain: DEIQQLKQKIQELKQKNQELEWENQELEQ

[32] = molecular target: T32, 4H908-bN; test: two-hybrid library CCNG1
T32 chain: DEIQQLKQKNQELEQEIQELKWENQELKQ

[33] = molecular target: T33, 4H918-bN; test: two-hybrid library CCNG1
T33 chain: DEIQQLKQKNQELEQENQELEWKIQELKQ

[34] = molecular target: T34, 4H953-bN; test: two-hybrid library CCNG1
T34 chain: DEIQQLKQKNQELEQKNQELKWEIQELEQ

[35] = molecular target: T35, 4H967-bN; test: two-hybrid library CCNG1
T35 chain: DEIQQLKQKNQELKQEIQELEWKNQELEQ

[36] = molecular target: T36, 4H3940-AA; test: two-hybrid library CCmax
T36 chain: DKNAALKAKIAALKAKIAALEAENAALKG

[37] = molecular target: T37, 4H510-AA; test: two-hybrid library CCmax; details: mean of both orientations
T37 chain: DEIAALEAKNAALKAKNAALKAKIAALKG

[38] = molecular target: T38, 4H775-AA; test: two-hybrid library CCmax; details: mean of both orientations
T38 chain: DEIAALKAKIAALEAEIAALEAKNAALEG

[39] = molecular target: T39, 4H816-AA; test: two-hybrid library CCmax; details: mean of both orientations
T39 chain: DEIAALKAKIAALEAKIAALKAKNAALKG

[40] = molecular target: T40, 4H87-AA; test: two-hybrid library CCmax; details: mean of both orientations
T40 chain: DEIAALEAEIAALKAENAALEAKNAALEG

[41] = molecular target: T41, APC5009-AA; test: two-hybrid library CCmax
T41 chain: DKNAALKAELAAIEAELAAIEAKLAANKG

[42] = molecular target: T42, APC542-AA; test: two-hybrid library CCmax; details: mean of both orientations
T42 chain: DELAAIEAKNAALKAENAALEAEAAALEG

[43] = molecular target: T43, APC5531-AA; test: two-hybrid library CCmax; details: mean of both orientations
T43 chain: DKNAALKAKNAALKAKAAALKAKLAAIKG

[44] = molecular target: T44, APC6088-AA; test: two-hybrid library CCmax; details: mean of both orientations
T44 chain: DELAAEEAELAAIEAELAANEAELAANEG

[45] = molecular target: T45, APC7524-AA; test: two-hybrid library CCmax; details: mean of both orientations
T45 chain: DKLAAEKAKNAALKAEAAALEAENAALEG

[46] = molecular target: T46, APC8401-AA; test: two-hybrid library CCmax; details: mean of both orientations
T46 chain: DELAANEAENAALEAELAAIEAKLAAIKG

[47] = molecular target: T47, APC8516-AA; test: two-hybrid library CCmax; details: mean of both orientations
T47 chain: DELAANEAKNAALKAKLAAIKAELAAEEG

[48] = molecular target: T48, APC9141-AA; test: two-hybrid library CCmax; details: mean of both orientations
T48 chain: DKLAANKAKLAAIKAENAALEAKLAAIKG

[49] = molecular target: T49, APC9182-AA; test: two-hybrid library CCmax; details: mean of both orientations
T49 chain: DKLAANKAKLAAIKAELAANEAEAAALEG

[50] = molecular target: T50, APC9291-AA; test: two-hybrid library CCmax; details: mean of both orientations
T50 chain: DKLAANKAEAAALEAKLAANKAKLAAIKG

[51] = molecular target: T51, APC9806-AA; test: two-hybrid library CCmax; details: mean of both orientations
T51 chain: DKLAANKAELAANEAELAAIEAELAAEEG

[52] = molecular target: T52, 4H2961-AA; test: two-hybrid library CCmax; details: mean of both orientations
T52 chain: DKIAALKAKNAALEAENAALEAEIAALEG

[53] = molecular target: T53, 4H3049-AA; test: two-hybrid library CCmax; details: mean of both orientations
T53 chain: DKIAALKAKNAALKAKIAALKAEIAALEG

DKNAALEAEIAALEAENAALEAKIAALKG [4H3094-AA]
interaction score [1]: -0.802 | interaction score [2]: -0.623 | interaction score ([3]; mean of both orientations): 1.64 | interaction score [4]: 2.52 | interaction score [5]: -1.6 | interaction score [6]: -0.24 | interaction score [7]: -0.696 | interaction score [8]: 1.51 | interaction score [9]: -0.623 | interaction score [10]: -0.861 | interaction score [11]: 0.441 | interaction score [12]: -0.811 | interaction score [13]: -0.753

DEIQELEKKNEELKRKIWELKKENQELKR [4H492-bH]
interaction score [14]: 0.6 | interaction score [15]: -0.317

DEIAALEAKIAALKAENAALEAKIAALEG [4H341-AA]
interaction score [3]: 1.84 | interaction score ([16]; mean of both orientations): 0.22 | interaction score [4]: 0.461 | interaction score [17]: -1.29 | interaction score [5]: -1.22 | interaction score [6]: 2.2 | interaction score [7]: -1.17 | interaction score [18]: 0.558 | interaction score [8]: -1.07 | interaction score ([9]; mean of both orientations): -1.31 | interaction score [19]: -1.29 | interaction score [20]: 0.0125 | interaction score [10]: 0.589 | interaction score [11]: -1.21 | interaction score [12]: 0.795 | interaction score [21]: 0.352 | interaction score [22]: 0.738 | interaction score [13]: 1.74

DEIQQLEQKNQELKQEIQELEWKIQELKQ [4H454-bN]
interaction score [23]: -0.79 | interaction score [24]: 0.196 | interaction score [25]: 0.145 | interaction score [26]: 1.02 | interaction score [27]: 0.0875 | interaction score [28]: 0.494 | interaction score [29]: -0.587 | interaction score [30]: -0.833 | interaction score [31]: -0.143 | interaction score [32]: 0.201 | interaction score [33]: -0.834 | interaction score [34]: -1.26 | interaction score [35]: -0.354

DKNAALKAKIAALKAKIAALEAENAALKG [4H3940-AA]
interaction score [36]: 0.422 | interaction score [37]: -1.47 | interaction score [38]: -0.249 | interaction score [39]: -0.0778 | interaction score [40]: -0.615

DKNAALEAKIAALKAENAALEAKIAALKG [4H3414-AA]
interaction score [16]: -0.215 | interaction score [17]: -1.09 | interaction score [6]: 0.922 | interaction score [18]: -1.23 | interaction score [8]: -0.842 | interaction score [19]: -1.42 | interaction score ([20]; mean of both orientations): -1.31 | interaction score [12]: -0.818 | interaction score [21]: 1.47 | interaction score [22]: 0.796 | interaction score [13]: -0.187

DKNAALKAELAAIEAELAAIEAKLAANKG [APC5009-AA]
interaction score [41]: -1.19 | interaction score [42]: -1.44 | interaction score [43]: -0.726 | interaction score [44]: -1.37 | interaction score [45]: -1.47 | interaction score [46]: -1.26 | interaction score [47]: -1.31 | interaction score [48]: -1.42 | interaction score [49]: -1.29 | interaction score [50]: -1.51 | interaction score [51]: -1.58

DKIAALKAKNAALEAEIAALEAENAALEG [4H2947-AA]
interaction score [52]: -2.03 | interaction score [53]: -0.853 | interaction score ([1]; mean of both orientations): 1.06 | interaction score [2]: -1.49 | interaction score ([3]; mean of both orientations): -1.12 | interaction score [4]: -0.39 | interaction score [5]: -1.85 | interaction score [6]: -1.56 | interaction score [7]: -1.93 | interaction score [8]: -1.17 | interaction score ([9]; mean of both orientations): -1.59 | interaction score [10]: -1.36 | interaction score [11]: 2.09 | interaction score [12]: -0.0537 | interaction score [13]: -1.61
